Experimental data published in patent publication US20210206877A1 (Genentech, published 2021).
Positions count from the first letter of the chain named.

B1: 5878 (antibody, V domains shown)
VH: EVQLLESGGGLVQPGGSLRLSCAASGFTFSSYAMSWVRQAPGKGLEWVSAISGSGISTPYADSVKGRFTISRDNSKNTLYLQMNSLRAEDTAVYYCAKGAGHGSYVKGWFDPWGQGTLVTVSS
VL: EIVLTQSPATLSLSPGERATLSCRASQSVSSYLAWYQQKPGQAPRLLIYDASNRATGIPARFSGSGSGTDFTLTISSLEPEDFAVYYCQQSVNFPFTFGGGTKVEIK
B2: 5532 (antibody, V domains shown)
VH: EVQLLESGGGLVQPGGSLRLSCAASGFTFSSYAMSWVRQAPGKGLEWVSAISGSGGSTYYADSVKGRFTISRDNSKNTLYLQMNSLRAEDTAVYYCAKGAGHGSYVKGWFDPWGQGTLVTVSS
VL: B1 VL with V92S
B3: 5592 (antibody, V domains shown)
VH: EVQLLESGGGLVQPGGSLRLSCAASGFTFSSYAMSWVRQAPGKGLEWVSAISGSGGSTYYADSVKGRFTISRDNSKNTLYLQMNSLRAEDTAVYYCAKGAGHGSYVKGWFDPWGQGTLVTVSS
VL: B1 VL
B4: 5880 (antibody, V domains shown)
VH: B1 VH with S30G, S35T
VL: B1 VL
B5: 5881 (antibody, V domains shown)
VH: B1 VH with S31K
VL: B1 VL
B6: 5583 (antibody, V domains shown)
VH: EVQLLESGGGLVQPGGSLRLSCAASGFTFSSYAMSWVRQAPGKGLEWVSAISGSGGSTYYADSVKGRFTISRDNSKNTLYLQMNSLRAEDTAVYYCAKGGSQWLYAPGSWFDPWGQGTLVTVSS
VL: B1 VL with Q89V, S91R, V92S, F96W
B7: 5874 (antibody, V domains shown)
VH: EVQLLESGGGLVQPGGSLRLSCAASGFTFGSYAMSWVRQAPGKGLEWVSATSGSGGSTYYADSVKGRFTISRDNSKNTLYLQMDSLRAEDTAVYYCAKGGSQWLYAPGSWFDPWGQGTLVTVSS
VL: B1 VL with Q89V, S91R, V92S, F96W
B8: 5875 (antibody, V domains shown)
VH: B7 VH with G30S, S31T, S35G, D84N
VL: B1 VL with Q89V, S91R, V92S, F96W
B9: 5876 (antibody, V domains shown)
VH: B7 VH with G30S, Y32R, S35G, T58I, D84N
VL: B1 VL with Q89V, S91R, V92S, F96W
B10: 5747 (antibody, V domains shown)
VH: QLQLQESGPGLVKPSETLSLTCTVSGGSISSSSYYWGWIRQPPGKGLEWIGNIYYSGSTYYNPSLKSRVTISVDTSKNQFSLKLSSVTAADTAVYYCARLGHGYSYFDLWGRGTLVTVSS
VL: EIVLTQSPATLSLSPGERATLSCRASQSVSSYLAWYQQKPGQAPRLLIYDASNRATGIPARFSGSGSGTDFTLTISSLEPEDFAVYYCQQVYLWPPRTFGGGTKVEIK
B11: 6275 (antibody, V domains shown)
VH: QVQLVQSGAEVKKPGSSVKVSCKASGGTFRGYAISWVRQAPGQGLEWMGNIIPGFGTANYAQKFQGRVTITADESTSTAYMELSSLRSEDTAVYYCARSGGTKYGMLDVWGQGTMVTVSS
VL: B10 VL with L4M, L13V, Y32N, D50G, N53T, D70E, E79Q, P80S, V91L, Y92F
B12: 6276 (antibody, V domains shown)
VH: B11 VH with F55L, G56S
VL: B10 VL with L4M, L13V, Y32N, D50G, N53T, D70E, E79Q, P80S, V91L, Y92I
B13: 6279 (antibody, V domains shown)
VH: B11 VH
VL: B10 VL with L4M, L13V, Y32N, D50G, N53T, D70E, E79Q, P80S, V91L, Y92L
B14: 5931 (antibody, V domains shown)
VH: B10 VH with S31W, G37S, N52S, Y55R, S58R, S67G, L100V, Y104I, S105N
VL: B10 VL with N53K, L93T
B15: 5932 (antibody, V domains shown)
VH: B10 VH with S31R, S32G, N52M, Y60W, L100V, Y104I
VL: B10 VL with N53K, L93T
B16: 5933 (antibody, V domains shown)
VH: B10 VH with S31R, S32G, N52M, Y60W, L100V, Y104V
VL: B10 VL with D50G, N53K, L93T
B17: 5982 (antibody, V domains shown)
VH: B10 VH
VL: B10 VL with Y36F, L93V
B18: 5983 (antibody, V domains shown)
VH: B10 VH with K66R, S81F, S105N
VL: B10 VL with Y36F, L93V
B19: 5984 (antibody, V domains shown)
VH: B10 VH with S67G, S105N
VL: B10 VL with Y36F, L93V
B20: 5985 (antibody, V domains shown)
VH: B10 VH with S105N
VL: B10 VL with Y36F, L93V
B21: 5986 (antibody, V domains shown)
VH: B10 VH with N52Q, Y60F
VL: B10 VL with Y36F, L93V
B22: 5990 (antibody, V domains shown)
VH: B10 VH with S31W, G37S, N52S, Y55R, S58R, L100V, Y104I, S105N
VL: B10 VL with Q27R, S30N, N53K, L93T
B23: 6280 (antibody, V domains shown)
VH: B10 VH with I29T, N52S, Y55R, L65F, L100V, Y104I
VL: B10 VL with V91S, Y92L, L93T
B24: 6285 (antibody, V domains shown)
VH: B10 VH with I29T, N52S, Y55R, L100V, Y104I
VL: B10 VL with N53S, V91S, Y92L, L93T
B25: 6288 (antibody, V domains shown)
VH: B10 VH with I29T, N52S, Y55R, K66R, L100V, Y104I
VL: B10 VL with V91S, Y92L, L93T
B26: 6289 (antibody, V domains shown)
VH: B10 VH with N52S, Y55R, K66R, A98V, L100V, Y104I
VL: B10 VL with V91S, Y92L, L93T
B27: 6290 (antibody, V domains shown)
VH: B10 VH with N52M, Y60W, L100V, H102L, Y104V
VL: B10 VL with N53K, L93T
B28: 6291 (antibody, V domains shown)
VH: B10 VH with N52M, Y60W, L100V, Y104V
VL: B10 VL with D50G, N53K, L93T
B29: 6293 (antibody, V domains shown)
VH: B10 VH with N52M, Y60W, K66R, L100V, Y104V
VL: B10 VL with N53K, L93T
B30: 6294 (antibody, V domains shown)
VH: B10 VH with Y34H, N52M, Y60W, L100V, Y104V
VL: B10 VL with N53K, L93T
B31: 6296 (antibody, V domains shown)
VH: B10 VH with K66R, S67G, S105N
VL: B10 VL with Y36F, L93V
B32: 6297 (antibody, V domains shown)
VH: B10 VH with S28P, K66R, S67G, S105N
VL: B10 VL with Y36F, L93V
B33: 6298 (antibody, V domains shown)
VH: B10 VH with S31W, G37S, S105N
VL: B10 VL with Y36F, L93V

Each binder was assayed against BACE1 ECD (as used in the enzyme activity assay) (UniProt P56817 22-457, limits assumed) (assay: cell-based or functional assay).
Sequence of BACE1 ECD (as used in the enzyme activity assay) (P56817 22-457 limits assumed): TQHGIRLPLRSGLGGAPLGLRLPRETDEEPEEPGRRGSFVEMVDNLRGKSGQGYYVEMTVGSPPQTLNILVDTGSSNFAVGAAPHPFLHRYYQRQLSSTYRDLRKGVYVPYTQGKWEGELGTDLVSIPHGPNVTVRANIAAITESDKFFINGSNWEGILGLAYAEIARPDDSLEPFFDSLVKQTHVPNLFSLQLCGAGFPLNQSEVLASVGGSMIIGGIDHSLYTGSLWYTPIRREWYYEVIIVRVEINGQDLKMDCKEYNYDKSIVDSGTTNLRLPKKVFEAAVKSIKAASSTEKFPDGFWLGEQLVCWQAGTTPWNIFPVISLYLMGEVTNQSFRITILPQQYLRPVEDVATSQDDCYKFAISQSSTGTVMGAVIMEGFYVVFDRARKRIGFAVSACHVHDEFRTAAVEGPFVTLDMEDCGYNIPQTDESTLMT
Throughout, for % inhibition, FRET short substrate assay (negative = activation): test concentration or dose not given here.

Point of comparison: B9, “EC50, FRET short substrate assay” value 0.703 nM. Against it:
- B1 — 35-fold higher, 24.3 nM
- B2 — 74-fold higher, 52.3 nM
- B3 — 140-fold higher, 95.9 nM
- B4 — 11-fold higher, 7.88 nM
- B5 — 8.4-fold higher, 5.93 nM
- B6 — 14-fold higher, 9.72 nM
- B7 — within 1.5-fold, 0.798 nM
- B8 — 2.8-fold higher, 1.99 nM

Point of comparison: B8, “EC50, HTRF long substrate assay” value 4.9 nM. Against it:
- B1 — 33-fold higher, 164 nM
- B2 — 21-fold higher, 104 nM
- B3 — 39-fold higher, 189 nM
- B4 — 35-fold higher, 171 nM
- B5 — 6.9-fold higher, 33.7 nM
- B6 — 35-fold higher, 172 nM
- B7 — within 1.5-fold, 3.97 nM
- B9 — 2.9-fold lower, 1.67 nM

What follows are binders tested against T1, BACE1 endogenous to primary cortical neurons from E16.5 CD1 mice (mouse, UniProt P56818 46-501) (assay: cell-based or functional assay).
T1 sequence (P56818 46-501): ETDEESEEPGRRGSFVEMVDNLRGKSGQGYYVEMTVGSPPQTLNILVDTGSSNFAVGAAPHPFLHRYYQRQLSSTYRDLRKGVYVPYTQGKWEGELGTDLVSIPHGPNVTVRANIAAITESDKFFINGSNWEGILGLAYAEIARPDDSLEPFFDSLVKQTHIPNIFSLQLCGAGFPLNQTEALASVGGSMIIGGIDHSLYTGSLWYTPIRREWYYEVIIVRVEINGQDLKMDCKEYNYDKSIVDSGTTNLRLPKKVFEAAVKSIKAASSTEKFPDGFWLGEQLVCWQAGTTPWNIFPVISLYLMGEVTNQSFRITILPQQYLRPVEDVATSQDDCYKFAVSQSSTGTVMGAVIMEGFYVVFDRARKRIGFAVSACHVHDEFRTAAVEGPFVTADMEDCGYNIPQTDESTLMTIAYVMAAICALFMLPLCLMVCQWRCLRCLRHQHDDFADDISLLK

B10 was tested, and the “max % inhibition, Abeta x-40 in mouse cortical neurons” value was 74%.

Each binder was assayed against human BACE1 ECD (human, UniProt P56817) (assay: cell-based or functional assay).
Sequence of human BACE1 ECD (P56817 22-457): as the sequence (P56817 22-457 limits assumed) above

Point of comparison: B1, “% inhibition, FRET short substrate assay (negative = activation)” value 99%. Against it:
- B2 — lower, 56%
- B3 — lower, 63%
- B4 — the same, 99%
- B5 — lower, 97%
- B6 — lower, 44%
- B7 — lower, 37%
- B8 — lower, 51%
- B9 — lower, 58%

The binders below were run against murine BACE1 ECD (assay: cell-based or functional assay).
Sequence of murine BACE1 ECD (single chain, as listed by the source limits assumed): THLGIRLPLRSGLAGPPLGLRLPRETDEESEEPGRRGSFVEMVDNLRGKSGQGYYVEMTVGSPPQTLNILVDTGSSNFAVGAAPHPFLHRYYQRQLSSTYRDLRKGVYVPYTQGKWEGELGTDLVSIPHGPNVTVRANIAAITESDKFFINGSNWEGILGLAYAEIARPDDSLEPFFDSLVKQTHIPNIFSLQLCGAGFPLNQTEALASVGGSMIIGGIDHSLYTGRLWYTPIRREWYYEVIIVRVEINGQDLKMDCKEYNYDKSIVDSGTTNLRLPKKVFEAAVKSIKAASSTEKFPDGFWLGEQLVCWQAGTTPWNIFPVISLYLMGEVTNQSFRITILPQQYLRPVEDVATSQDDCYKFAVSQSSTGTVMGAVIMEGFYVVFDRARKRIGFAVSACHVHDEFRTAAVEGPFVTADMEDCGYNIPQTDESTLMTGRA

Point of comparison: B7, “% inhibition, FRET short substrate assay (negative = activation)” value 33%. Against it:
- B1 — higher, 98%
- B2 — higher, 50%
- B3 — higher, 60%
- B4 — higher, 97%
- B5 — higher, 98%
- B6 — higher, 34%
- B8 — higher, 39%
- B9 — higher, 46%

Molecular target: T1, BACE1 endogenous to primary cortical …
Experiment: cell-based or functional assay
Remark: another data set of the same source

Point of comparison: B29, “max % inhibition, Abeta x-40 in mouse cortical neurons” value 75%. Against it:
- B11 — lower, 71%
- B12 — higher, 81%
- B13 — lower, 71%
- B14 — lower, 69%
- B15 — lower, 57%
- B16 — lower, 67%
- B17 — lower, 71%
- B18 — lower, 72%
- B19 — lower, 70%
- B20 — lower, 73%
- B21 — lower, 67%
- B22 — lower, 61%
- B23 — lower, 65%
- B24 — lower, 57%
- B25 — lower, 67%
- B26 — lower, 74%
- B27 — lower, 63%
- B28 — lower, 68%
- B30 — lower, 59%
- B31 — lower, 62%
- B32 — lower, 63%
- B33 — lower, 67%
